Values of other authors as cited in publication PMC8834348.

Columns and labels:
[1] = molecular target: flotillin 2 (Homo sapiens) (UniProt Q14254)
[2] = molecular target: flotillin 1 (Homo sapiens) (UniProt O75955)
Chain of UniProt O75955 (O75955 whole entry): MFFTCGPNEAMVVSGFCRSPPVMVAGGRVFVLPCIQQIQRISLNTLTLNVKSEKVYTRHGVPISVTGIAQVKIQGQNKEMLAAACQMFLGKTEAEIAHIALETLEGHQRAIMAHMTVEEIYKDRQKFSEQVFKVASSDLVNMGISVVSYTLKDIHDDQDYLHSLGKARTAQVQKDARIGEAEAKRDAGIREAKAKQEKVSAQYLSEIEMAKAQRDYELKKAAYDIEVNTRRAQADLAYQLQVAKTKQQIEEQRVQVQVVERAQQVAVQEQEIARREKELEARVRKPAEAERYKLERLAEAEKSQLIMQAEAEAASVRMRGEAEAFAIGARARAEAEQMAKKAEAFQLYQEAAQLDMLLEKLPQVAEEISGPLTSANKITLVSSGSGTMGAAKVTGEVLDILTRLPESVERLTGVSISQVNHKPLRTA

Chain of UniProt Q14254 (Q14254 2-428): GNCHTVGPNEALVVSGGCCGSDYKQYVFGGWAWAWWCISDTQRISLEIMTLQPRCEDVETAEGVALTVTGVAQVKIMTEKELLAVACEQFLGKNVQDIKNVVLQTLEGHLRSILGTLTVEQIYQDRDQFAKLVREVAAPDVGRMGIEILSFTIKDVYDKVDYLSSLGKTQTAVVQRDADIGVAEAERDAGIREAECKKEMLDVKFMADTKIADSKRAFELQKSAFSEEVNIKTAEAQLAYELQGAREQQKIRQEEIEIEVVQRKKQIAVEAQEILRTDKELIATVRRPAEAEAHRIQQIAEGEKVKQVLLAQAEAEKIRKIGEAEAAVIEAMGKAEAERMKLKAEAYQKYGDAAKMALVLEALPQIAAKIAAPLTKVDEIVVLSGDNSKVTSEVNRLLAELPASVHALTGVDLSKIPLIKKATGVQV

Kd [1]: 30 nM
Kd [2]: 30 nM
Substance: MPP1 D5 domain (from UniProt Q00013)
